Source: patent US20190016796A1 (UNIVERSITAT ZURICH, published 2019)

Legend:
human interleukin-2 = biological target: T1, human interleukin-2 (human, UniProt P60568 21-153); experiment: SPR, antibody amine-coupled to GLM chip, hIL-2 as analyte (100 nM, three-fold dilutions)
T1 construct: Teceleukin is named only for the in vivo treatments; also called hIL-2; human IL-2
Description: For this experiment an amine coupling GLM chip was used. The activation of the carboxylic acid groups in the chip was done using a mix of 1-ethyl-3-3-dimethylaminopropyl carbodiimide hydrochloride (EDC at 0.2 M) and sulfo N-hydroxysulfosuccinimides (s_NHS at 0.05M) at 30 μl/min for 420 seconds (s). […] Deactivation was followed adding ethanolamine HCl at 30 μl/min for 300 s. Finally human IL-2 was added at different concentrations (starting from 100 nM and followed by three-fold dilutions) at 100 μl/min, 600 s association, and 240 s dissociation.
In order to characterize the binding properties of the anti-human IL-2 mAbs the binding to human interleukin-2 was tested with surface plasmon resonance binding assays.

murine interleukin-2 = biological target: T2, murine interleukin-2 (mouse, UniProt P04351 21-169); experiment: SPR, NARA1 amine-coupled to a GLM chip, mouse IL-2 injected at 10 to 0.041 nM
T2 construct: also called mouse IL-2; mIL-2
T2 sequence (looked up): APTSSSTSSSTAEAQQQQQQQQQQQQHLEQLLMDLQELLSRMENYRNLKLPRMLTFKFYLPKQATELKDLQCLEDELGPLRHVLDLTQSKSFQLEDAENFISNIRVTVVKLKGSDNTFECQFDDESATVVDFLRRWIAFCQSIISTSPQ

T1 sequence (P60568 21-153 limits assumed): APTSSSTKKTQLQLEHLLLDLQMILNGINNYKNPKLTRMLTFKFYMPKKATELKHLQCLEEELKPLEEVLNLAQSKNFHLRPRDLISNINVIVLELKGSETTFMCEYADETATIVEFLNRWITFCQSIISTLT

Kd (human interleukin-2): 1.2 nM | koff (human interleukin-2): 2.08e-05 s⁻¹ | binding result (murine interleukin-2): no binding (tested: 10 nM)
B1: monoclonal antibody NARA1 (antibody, mouse IgG2a, kappa, V domains shown)
VH: QVQLQQSGAELVRPGTSVKVSCKASGYAFTNYLIEWVKQRPGQGLEWIGVINPGSGGTNYNEKFKGKATLTADKSSSTAYMQLSSLTSDDSAVYFCARWRGDGYYAYFDVWGAGTTVTVSS
VL: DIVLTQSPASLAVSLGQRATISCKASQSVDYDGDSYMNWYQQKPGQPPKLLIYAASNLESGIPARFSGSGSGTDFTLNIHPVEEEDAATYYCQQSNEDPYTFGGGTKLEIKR
notes: also called hIL-2 mAb
